Experimental data as given in patent CN112062838A (UNIV NANJING MEDICAL, dated 2020).
“And” between values parts separate entries of the source, which are not always exact repeats. Equal entries are not always repeated.

Key:
[1] = target: SARS-CoV-2 spike (D614) on pseudovirus (SARS-CoV-2, UniProt P0DTC2 14-1273); assay: cell-based or functional assay
[2] = target: T1, SARS-CoV-RBD-hFc (SARS-CoV, UniProt P59594 306-527); assay: phage ELISA, antigen coated at 5μg/ml, anti-M13 HRP detection
T1 construct: domain: RBD

B1: 4D8-hFc重组蛋白 (单域抗体4D8, purified) (Fc fusion, not shown: a dimerising Fc or GST)
chain: QVQLVQSGGGLVQPGGSLRLSCAASDFDFYDYEMSWVRQAPGKALEWIGEIHHSGSTYYNPSLKSRVTISRDNSKNTLYLQMNTLRAEDTAIYYCVKDFVGADGPFVFDYWGQGTLVTVSS
- 伪病毒中和 IC50 (Luciferase活性, CHO-ACE2细胞) [1]: 1.13 μg/ml and 15 nM

B2: 4D8克隆 (4D8噬菌体, phage-displayed single-domain antibody clone) (VHH)
VHH: B1 chain
notes: also called 富集克隆4D8
- binding result [2]: no binding
